The results in this text go back to article PMC5063618 (Molecular Biology of the Cell, 2016).

Data set [1] has as its target T1, rabbit skeletal muscle actin, as filaments (rabbit, UniProt P68135 1-377). The experiment in a line: co-sedimentation.
Data set [2] concerns the target T1, rabbit skeletal muscle actin, as …. Description: co-sedimentation. This is another data set of the same source.
The target is the same in data set [3]. The experiment in a line: co-sedimentation. This is another data set of the same source.
The target is the same in data set [4]. Description: co-sedimentation. This is another data set of the same source.
Data set [5] has the same target. Description: co-sedimentation. The source holds these as a separate data set.
The target is the same in data set [6]. The experiment in a line: co-sedimentation. This is another data set of the same source.
Data set [7] has the same target. Description: co-sedimentation. The source holds these as a separate data set.
The data set “AUC” concerns the molecule itself. Description: AUC.
The target of data set [8] is T1, rabbit skeletal muscle actin, as …. Description: TIRF microscopy, fluorescence decay after washout.
Data set [9] shares this target. The experiment in a line: TIRF microscopy, fluorescence decay after washout. The source holds these as a separate data set.
For data set [10] the target is unchanged. Description: TIRF microscopy, fluorescence decay after washout. This is another data set of the same source.
Data set [11] has the same target. The experiment in a line: TIRF microscopy, fluorescence decay after washout. This is another data set of the same source.
Data set [12] shares this target. Description: TIRF microscopy, fluorescence decay after washout. The source holds these as a separate data set.
The target is the same in data set [13]. The experiment in a line: TIRF microscopy, fluorescence decay after washout. The source holds these as a separate data set.
Data set [14] has the same target. Description: TIRF microscopy, fluorescence decay after washout. The source holds these as a separate data set.
Data set [15] has the same target. Description: TIRF microscopy, fluorescence decay after washout. The source holds these as a separate data set.
Data set [16] shares this target. The experiment in a line: TIRF microscopy, fluorescence decay after washout. The source holds these as a separate data set.
Data set [17] has the same target. Description: TIRF microscopy, fluorescence decay after washout. This is another data set of the same source.
The target is the same in data set [18]. The experiment in a line: TIRF microscopy, fluorescence decay after washout. The source holds these as a separate data set.
The target is the same in data set [19]. The experiment in a line: TIRF microscopy, fluorescence decay after washout. The source holds these as a separate data set.
The target is the same in data set [20]. Description: TIRF microscopy, fluorescence decay after washout. The source holds these as a separate data set.

Where two headings read alike, the source gives them in different places.

B1: human Drp1 isoform 000 (dynamin-related protein-1), wild type (enzyme, UniProt O00429-4 1-699, looked up)
chain: MEALIPVINKLQDVFNTVGADIIQLPQIVVVGTQSSGKSSVLESLVGRDLLPRGTGIVTRRPLILQLVHVSQEDKRKTTGEENGVEAEEWGKFLHTKNKLYTDFDEIRQEIENETERISGNNKGVSPEPIHLKIFSPNVVNLTLVDLPGMTKVPVGDQPKDIELQIRELILRFISNPNSIILAVTAANTDMATSEALKISREVDPDGRRTLAVITKLDLMDAGTDAMDVLMGRVIPVKLGIIGVVNRSQLDINNKKSVTDSIRDEYAFLQKKYPSLANRNGTKYLARTLNRLLMHHIRDCLPELKTRINVLAAQYQSLLNSYGEPVDDKSATLLQLITKFATEYCNTIEGTAKYIETSELCGGARICYIFHETFGRTLESVDPLGGLNTIDILTAIRNATGPRPALFVPEVSFELLVKRQIKRLEEPSLRCVELVHEEMQRIIQHCSNYSTQELLRFPKLHDAIVEVVTCLLRKRLPVTNEMVHNLVAIELAYINTKHPDFADACGLMNNNIEEQRRNRLARELPSAVSRDKVASGGGGVGDGVQEPTTGNWRGMLKTSKAEELLAEEKSKPIPIMPASPQKGHAVNLLDVPVPVARKLSAREQRDCEVIERLIKSYFLIVRKNIQDSVPKAVMHFLVNHVKDTLQSELVGQLYKSSLLDDLLTESEDMAQRRKEAADMLKALQGASQIIAEIRETHLW
B1: the Kd is 600 nM in [1]; 200 nM in data set [2]; 2800 nM in [3]; 800 nM in data set [4]; 500 nM in data set [5]; 400 nM in data set [6]. Besides, in data set [7], the Kd worked out at 1100 nM. Also, in the data set “AUC”, the “stoichiometry N” value came to 4.

B2: GFP-Drp1 (human Drp1 isoform 000 with N-terminal GFP A206K) (enzyme)
chain: B1 chain
With B2, the t1/2 of dissociation is 93.1 ± 88 s in data set [8]; 40 ± 20.3 s in [9]; 9.8 s in [10]; 48.7 ± 20.6 s in data set [11]; 93.2 ± 94.5 s in data set [12]; 9.9 ± 4.4 s in data set [13]. Also, the t1/2 of dissociation was 16.5 ± 2.5 s in [14]; 26.9 ± 20.6 s in [15]; 84.1 ± 93.6 s in data set [16]; 8.1 ± 4.3 s in data set [17]; 4.1 ± 1.4 s in data set [18]; 5.4 ± 2 s in [19]. The same molecule registered a t1/2 of dissociation in [20] of 115 ± 43.5 s.

The term Kd denotes the equilibrium constant for the complex coming apart. Higher therefore signals lower affinity. For orientation: stoichiometry N means the number of molecules, sites or subunits per partner or assembly.
